Data taken from US7452992B2, “Heterocyclic compounds as CCR5 antagonists” (SmithKline Beecham Corporation, priority 2002, dated 2008).

Target: T1, human CCR5 chemokine receptor (Homo sapiens, UniProt P51681)
T1 construct: host or cells: Chinese Hamster Ovary (CHO) cells; membranes prepared from the cell pellet
Assay: CC-Chemokine Receptor-5 Binding by Scintillation Proximity Assay (CCR5 SPA), displacement of 125I-MIP1α
Details: standard compound, 14-point concentration-response curve in triplicate, starting concentration 1 μM
Procedure: CC-Chemokine Receptor-5 Binding by Scintillation Proximity Assay (CCR5 SPA)
Scintillation Proximity Assay for the Human CC-Chemokine Receptor, CCR-5
This protocol describes a high-throughput screen using SPA binding to identify compounds that inhibit binding of ^125I-MIP1α to the human CCR5 chemokine receptor.
Human CCR5 receptors were expressed in Chinese Hamster Ovary (CHO) cells, registration # 12025. Cells were grown in suspension and a 50 to 80 ml CCR5 cell pellet was prepared. […]
The saturation curve binding experiment is performed by adding varying amounts of [^125I]MIP1α (0-8.5 nM to membranes and beads in concentrations chosen from the optimal protein/bead ratio. The data is analyzed using a non-linear curve-fitting program. The Kd and Bmax are derived from the curve. […]

T1 sequence (P51681 whole entry): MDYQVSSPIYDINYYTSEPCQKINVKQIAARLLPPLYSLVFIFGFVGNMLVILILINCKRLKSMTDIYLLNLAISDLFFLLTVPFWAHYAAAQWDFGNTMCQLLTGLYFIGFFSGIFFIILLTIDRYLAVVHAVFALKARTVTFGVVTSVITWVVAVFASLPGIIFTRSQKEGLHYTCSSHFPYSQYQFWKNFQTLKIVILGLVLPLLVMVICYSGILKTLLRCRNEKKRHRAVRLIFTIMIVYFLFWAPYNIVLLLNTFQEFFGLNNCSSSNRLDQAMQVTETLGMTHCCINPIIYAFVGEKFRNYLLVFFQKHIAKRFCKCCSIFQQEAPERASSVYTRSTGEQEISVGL

average historical pKi: 7.6
Substance: MIP1α: natural chemokine ligand of CCR5, used as standard compound in the SPA binding assay
